# Assay results as given in publication PMC10830420.
# How the values were obtained:
# ORF2p-His8 core = ORF2p-His8 core (human (Homo sapiens), UniProt O00370 238-1061); assay: X-ray crystallography (2.1 A); dTTP, Mg2+; DSF: 20 mM HEPES-KOH pH 7.6, 100 mM NaCl, 1 mM DTT, 2 mM Mg acetate, thermal ramp; crystals: protein 3 mg/mL, 50 mM NaCl dilution, 2 mM MgCl2, 2 mM dTTP, 1.3:1
# ORF2p core [1] = molecular target: T1, ORF2p core (human (Homo sapiens), UniProt O00370 238-1061); assay: cryo-EM (3.66 A); DSF: 20 mM HEPES-KOH pH 7.6, 100 mM NaCl, 1 mM DTT, 2 mM Mg acetate, thermal ramp; crystals: protein 3 mg/mL, 50 mM NaCl dilution, 2 mM MgCl2, 2 mM dTTP, 1.3:1
# ORF2p core [2] = molecular target: T1, ORF2p core; assay: cryo-EM (3.30 A); dTTP, Mg2+; DSF: 20 mM HEPES-KOH pH 7.6, 100 mM NaCl, 1 mM DTT, 2 mM Mg acetate, thermal ramp; crystals: protein 3 mg/mL, 50 mM NaCl dilution, 2 mM MgCl2, 2 mM dTTP, 1.3:1
binder,measurement,setting,value
"crystallography RNA template:DNA primer hybrid (DNA:RNA, 3' dideoxy-C on DNA primer) RNA: UUAGGAAAGCGC DNA: GCGCTTTCC",binding result,ORF2p-His8 core,binds
AAAAAAAAAAAAAAAAAAAAAAAAA (ssRNA) [oligo-25(A) ssRNA],binding result,ORF2p core [1],binds
"cryo-EM RNA:DNA hybrid (DNA:RNA, 3' dideoxy-C on DNA primer) RNA: GGAGCGAAAUUUUCGC DNA: GCGAAAATTTCGC",binding result,ORF2p core [2],binds
